Stoichiometry N data for 1 substance are collected here from PMC9893218.

The target of the assay is trastuzumab. The assay can be described thus: SEC + native MS.

For trastuzumab (antibody), the stoichiometry N was determined as 2.

In general, stoichiometry N refers to a count of units in the complex or per binding partner.
